{"source": "paper PMC3099344", "about": "(Structure (London, England : 1993), 2011)", "proteins": {"B1": {"name": "M. musculus Mesd structured domain (mmMesdSD) (domain or fragment, Mus musculus)", "chain": "GSHMTKKGKTLMMFVTVSGNPTEKETEEITSLWQGSLFNANYDVQRFIVGSDRAIFMLRDGSYAWEIKDFLVSQDRCAEVTLEGQMYPG"}, "B2": {"name": "D. melanogaster Boca conserved core (dmBocaCC) (domain or fragment, Drosophila melanogaster)", "chain": "GSHMKKDIRDYSEADLERLLDQWEEDEEPLEDDELPEHLRPQPKLDLSNLDSKSPEDLLKVSKKGRTLMTFVSVTGNPTREESDTITKLWQTSLWNNHIQAERYMVDDNRAIFLFKDGTQAWDAKDFLIEQERCKGVTIENKEYPG"}, "B3": {"name": "D. melanogaster Boca structured domain (dmBocaSD) (domain or fragment, Drosophila melanogaster)", "chain": "GSQKHMSKKGRTLMTFVSVTGNPTREESDTITKLWQTSLWNNHIQAERYMVDDNRAIFLFKDGTQAWDAKDFLIEQERCKGVTIENKEYPG"}, "B4": {"name": "Selenomethionyl D. melanogaster Boca structured domain (SeMet dmBocaSD) (domain or fragment, Drosophila melanogaster)", "chain": "B3 chain", "modifications": "selenomethionyl (SeMet) protein"}}, "key": {"AUC": {"target": "the molecule itself", "assay": "AUC"}, "crystal structure": {"target": "the molecule itself", "assay": "crystal structure"}}}
{"protein": "B1", "values": [{"measurement": "Kd", "setting": "AUC", "result": "276 ± 13.8", "unit": "µM"}]}
{"protein": "B2", "values": [{"measurement": "Kd", "setting": "AUC", "result": "155 ± 4.6", "unit": "µM"}]}
{"protein": "B3", "values": [{"measurement": "Kd", "setting": "AUC", "result": "77 ± 3.1", "unit": "µM"}]}
{"protein": "B4", "values": [{"measurement": "binding result", "setting": "crystal structure", "result": "binds"}]}
